The results in this text go back to US20110002929A1 (Ablynx, published 2011).

For assay [1], the target named is T1, human RANK-L, full length, membrane-bound, expressed on HEK293T cells (human, UniProt O14788 1-317).
T1 construct: whole, on cells; also called hRANK-L
T1 sequence (looked up): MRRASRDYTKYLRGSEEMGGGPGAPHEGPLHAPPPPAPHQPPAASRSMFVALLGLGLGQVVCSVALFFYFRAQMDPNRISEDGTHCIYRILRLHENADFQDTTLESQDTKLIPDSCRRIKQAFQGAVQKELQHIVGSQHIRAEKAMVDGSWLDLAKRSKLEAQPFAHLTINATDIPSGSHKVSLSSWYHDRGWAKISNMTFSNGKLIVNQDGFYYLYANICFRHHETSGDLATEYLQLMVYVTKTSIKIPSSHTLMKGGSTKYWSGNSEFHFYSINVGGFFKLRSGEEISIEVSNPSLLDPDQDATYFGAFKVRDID
Nature of the assay: FACS, HEK293T with human RANK-L, 400 pM Nanobody. The procedure: (§1) Human embryonic kidney cells (HEK293T) were grown in Dulbecco's modified Eagles's medium supplemented with 10% fetal bovine serum (FBS), […] L-glutamine, 0.4 mM sodium pyruvate. […] After 48 hours, transfected cells were subjected to FACS analysis. […] Then cells were washed three times with FACS buffer. Bound Nanobodies were detected by subsequent incubations of a primary mouse anti Myc antibody (30 min at 4° C. (2 μg/ml)) and a second incubation with goat anti mouse-Phycoerythrin (PE) (Jackson Laboratories) for another 30 min at 4° C. Finally, after washing, the cells were resuspended in PBS+10% FBS+TO-PRO®-3 (5 nM) (Molecular Probes®, Invitrogen, Merelbeke, Belgium) and cell surface fluorescence expressed as mean PE fluorescence, was measured using flow cytometry.
In general terms: A flow cytometer gives signals particle by particle.

Assay [2] deals with T2, human RANK-L (human, UniProt O14788 140-317, limits assumed).
T2 construct: Soluble protein, used coated, biotinylated or labelled in ELISA, AlphaScreen, FMAT and Biacore; also called hRANK-L; soluble human RANK-L
T2 sequence (looked up): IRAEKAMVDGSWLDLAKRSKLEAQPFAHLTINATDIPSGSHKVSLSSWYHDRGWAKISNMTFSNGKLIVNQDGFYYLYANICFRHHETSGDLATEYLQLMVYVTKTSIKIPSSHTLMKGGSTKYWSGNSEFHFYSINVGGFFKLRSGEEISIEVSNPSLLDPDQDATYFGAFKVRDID
The assay can be described thus: AlphaScreen, biotin-hRANK-L / RANK-huFc beads. (In general: In Alpha technology, singlet oxygen from a donor bead excites a nearby acceptor bead.)

The target in a further assay is T3, mouse RANK-L (mouse, UniProt O35235 158-316, limits assumed).
T3 construct: also called murine RANK-L
T3 sequence (looked up): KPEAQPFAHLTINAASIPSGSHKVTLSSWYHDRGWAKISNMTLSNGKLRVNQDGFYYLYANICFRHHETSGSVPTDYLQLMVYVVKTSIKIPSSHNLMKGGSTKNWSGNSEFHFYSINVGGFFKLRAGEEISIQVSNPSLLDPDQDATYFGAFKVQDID
Nature of the assay: ELISA, set-up as for human RANK-L. The essentials:
(§2)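 Nanobodies at 500 nM to 160 pM in 1% casein/PBS incubated 1 h at room temperature; binding detected via anti-myc then anti-mouse-HRP with TMB, OD 450 nm.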
Background: An ELISA detects its analyte on a solid surface through an enzyme-linked reagent.

Assay [3] concerns the target T1, human RANK-L, full length, …. Nature of the assay: FACS, HEK293T with human RANK-L, 16 pM Nanobody. The procedure:
as §1

Assay [4] has as its target T2, human RANK-L. Nature of the assay: FMAT, ALEXA647-hRANK-L / RANK on HEK293T cells. The procedure:
HEK293T cells were transiently transfected with the plasmid expressing full length RANK using Fugene6 as described in example 3. After 24 hours aliquots of 60 μl (7.5×10³ cells) were plated into FMAT system 384-well plates (PE Biosystems, CA, US) and allowed to adhere for 24 h. After overnight adherence, culture supernatant was removed by gently tapping the plate. […] The plates were scanned after 10 hours of incubation. Cell surface fluorescence was measured by 8200 Cellular Detection System (Applied Biosystems, Foster City, Calif., US) which is a fluorescence macro-confocal, biological binding event analyzer that enables mix-and-read assays with live cells.

In assay [5] the target is T2, human RANK-L. Nature of the assay: AlphaScreen, biotin-hRANK-L / RANK-huFc beads. The protocol:
To this mixture, the RANK acceptor beads and the streptavidin donor beads were added and further incubated for 1 hour at room temperature. Fluorescence was measured by reading plates on the EnVision Multilabel Plate Reader (Perkin Elmer) using an excitation wavelength of 680 nm and an emission wavelength of 520 nm.
The source holds these as a separate data set.

For assay [6], the target named is T1, human RANK-L, full length, …. Nature of the assay: FACS, HEK293T with human RANK-L, 2000 pM Nanobody. The protocol:
as §1

The target in assay [7] is T4, cynomolgus RANK-L, full length, membrane-bound, expressed on HEK293T cells (cynomolgus monkey, UniProt A0A7N9DBU4 1-317).
T4 construct: whole, on cells; also called cyno RANK-L
T4 sequence: T1 sequence (looked up) with A32T, F68L, G83S, D174N, S177T, I291V
Nature of the assay: FACS, HEK293T with cynomolgus RANK-L, 2000 pM Nanobody. The protocol:
as §1

In assay [8] the target is T2, human RANK-L. The assay can be described thus: ELISA (ED50), biotin-hRANK-L on neutravidin. Put shortly: as §2
The target in assay [9] is T4, cynomolgus RANK-L, full length, …. Nature of the assay: FACS, HEK293T with cynomolgus RANK-L, 400 pM Nanobody. The protocol:
as §1

Residue numbers refer to the chain shown, from its start.

B1: RANKL13 (VHH, not shown: small tags and cut ends)
VHH: EVQLVESGGGLVQAGGSLRLSCAASGRTFRSYPMGWFRQAPGKEREFVASITGSGGSTYYADSVKGRFTISRDNAKNTVYLQMNSLRPEDTAVYSCAAYIRPDTYLSRDYRKYDYWGQGTQVTVSS
The term IC50 denotes the concentration that inhibits the measured activity by half. Lower therefore signals greater potency. The EC50 is the midpoint of the concentration-response curve. For B1, the PE mean fluorescence in assay [1] is 5220; in assay [3], 499; in assay [6], 13900; in assay [7], 12400; in [9] it was 4110. The IC50 with human RANK-L [2] is 0.12 nM; with human RANK-L [4], 0.429 nM; in the assay with human RANK-L [5] it was 0.185 nM. Moreover, the binding result with mouse RANK-L was “no binding (tested: 500 nM to 160 pM)”. Also, in the assay with human RANK-L [8], the EC50 is 0.226 nM.

B2: RANKL18 (VHH, not shown: small tags and cut ends)
VHH: EVQLVESGGGLVQAGGSLRLSCAASGRTFSRSAMGWFRQAPGKEREFVGFITGSGGTTYYGESVKGRFTISRDNAQNPVYLQMNSLKPEDTAVYYCGVYRRTYISSTYSESSEYDYWGQGTQVTVSS
Regarding B2, the PE mean fluorescence stood at 2330 in assay [1]; 218 in assay [3]; 7630 in [6]; 12000 in [7]; 3490 in assay [9]. The IC50 with human RANK-L [2] turned out to be 0.253 nM; in the assay with human RANK-L [4] it was 0.552 nM; with human RANK-L [5] it was 0.146 nM. Further, in the assay with mouse RANK-L, the binding result is “no binding (tested: 500 nM to 160 pM)”. In the assay with human RANK-L [8], a half-maximal response (EC50) required 0.242 nM.
